IntAct's records for PubMed 21240188

B1: Fanconi anemia group J protein (Homo sapiens), Q9BX63 (parent)
chain: MSSMWSEYTIGGVKIYFPYKAYPSQLAMMNSILRGLNSKQHCLLESPTGSGKSLALLCSALAWQQSLSGKPADEGVSEKAEVQLSCCCACHSKDFTNNDMNQGTSRHFNYPSTPPSERNGTSSTCQDSPEKTTLAAKLSAKKQASIYRDENDDFQVEKKRIRPLETTQQIRKRHCFGTEVHNLDAKVDSGKTVKLNSPLEKINSFSPQKPPGHCSRCCCSTKQGNSQESSNTIKKDHTGKSKIPKIYFGTRTHKQIAQITRELRRTAYSGVPMTILSSRDHTCVHPEVVGNFNRNEKCMELLDGKNGKSCYFYHGVHKISDQHTLQTFQGMCKAWDIEELVSLGKKLKACPYYTARELIQDADIIFCPYNYLLDAQIRESMDLNLKEQVVILDEAHNIEDCARESASYSVTEVQLRFARDELDSMVNNNIRKKDHEPLRAVCCSLINWLEANAEYLVERDYESACKIWSGNEMLLTLHKMGITTATFPILQGHFSAVLQKEEKISPIYGKEEAREVPVISASTQIMLKGLFMVLDYLFRQNSRFADDYKIAIQQTYSWTNQIDISDKNGLLVLPKNKKRSRQKTAVHVLNFWCLNPAVAFSDINGKVQTIVLTSGTLSPMKSFSSELGVTFTIQLEANHIIKNSQVWVGTIGSGPKGRNLCATFQNTETFEFQDEVGALLLSVCQTVSQGILCFLPSYKLLEKLKERWLSTGLWHNLELVKTVIVEPQGGEKTNFDELLQVYYDAIKYKGEKDGALLVAVCRGKVSEGLDFSDDNARAVITIGIPFPNVKDLQVELKRQYNDHHSKLRGLLPGRQWYEIQAYRALNQALGRCIRHRNDWGALILVDDRFRNNPSRYISGLSKWVRQQIQHHSTFESALESLAEFSKKHQKVLNVSIKDRTNIQDNESTLEVTSLKYSTSPYLLEAASHLSPENFVEDEAKICVQELQCPKIITKNSPLPSSIISRKEKNDPVFLEEAGKAEKIVISRSTSPTFNKQTKRVSWSSFNSLGQYFTGKIPKATPELGSSENSASSPPRFKTEKMESKTVLPFTDKCESSNLTVNTSFGSCPQSETIISSLKIDATLTRKNHSEHPLCSEEALDPDIELSLVSEEDKQSTSNRDFETEAEDESIYFTPELYDPEDTDEEKNDLAETDRGNRLANNSDCILAKDLFEIRTIKEVDSAREVKAEDCIDTKLNGILHIEESKIDDIDGNVKTTWINELELGKTHEIEIKNFKPSPSKNKGMFPGFK

Variants of: B1
Details: with brca1_human BRCA1, P38398
Sequence of brca1_human BRCA1, P38398 (P38398 whole entry, looked up): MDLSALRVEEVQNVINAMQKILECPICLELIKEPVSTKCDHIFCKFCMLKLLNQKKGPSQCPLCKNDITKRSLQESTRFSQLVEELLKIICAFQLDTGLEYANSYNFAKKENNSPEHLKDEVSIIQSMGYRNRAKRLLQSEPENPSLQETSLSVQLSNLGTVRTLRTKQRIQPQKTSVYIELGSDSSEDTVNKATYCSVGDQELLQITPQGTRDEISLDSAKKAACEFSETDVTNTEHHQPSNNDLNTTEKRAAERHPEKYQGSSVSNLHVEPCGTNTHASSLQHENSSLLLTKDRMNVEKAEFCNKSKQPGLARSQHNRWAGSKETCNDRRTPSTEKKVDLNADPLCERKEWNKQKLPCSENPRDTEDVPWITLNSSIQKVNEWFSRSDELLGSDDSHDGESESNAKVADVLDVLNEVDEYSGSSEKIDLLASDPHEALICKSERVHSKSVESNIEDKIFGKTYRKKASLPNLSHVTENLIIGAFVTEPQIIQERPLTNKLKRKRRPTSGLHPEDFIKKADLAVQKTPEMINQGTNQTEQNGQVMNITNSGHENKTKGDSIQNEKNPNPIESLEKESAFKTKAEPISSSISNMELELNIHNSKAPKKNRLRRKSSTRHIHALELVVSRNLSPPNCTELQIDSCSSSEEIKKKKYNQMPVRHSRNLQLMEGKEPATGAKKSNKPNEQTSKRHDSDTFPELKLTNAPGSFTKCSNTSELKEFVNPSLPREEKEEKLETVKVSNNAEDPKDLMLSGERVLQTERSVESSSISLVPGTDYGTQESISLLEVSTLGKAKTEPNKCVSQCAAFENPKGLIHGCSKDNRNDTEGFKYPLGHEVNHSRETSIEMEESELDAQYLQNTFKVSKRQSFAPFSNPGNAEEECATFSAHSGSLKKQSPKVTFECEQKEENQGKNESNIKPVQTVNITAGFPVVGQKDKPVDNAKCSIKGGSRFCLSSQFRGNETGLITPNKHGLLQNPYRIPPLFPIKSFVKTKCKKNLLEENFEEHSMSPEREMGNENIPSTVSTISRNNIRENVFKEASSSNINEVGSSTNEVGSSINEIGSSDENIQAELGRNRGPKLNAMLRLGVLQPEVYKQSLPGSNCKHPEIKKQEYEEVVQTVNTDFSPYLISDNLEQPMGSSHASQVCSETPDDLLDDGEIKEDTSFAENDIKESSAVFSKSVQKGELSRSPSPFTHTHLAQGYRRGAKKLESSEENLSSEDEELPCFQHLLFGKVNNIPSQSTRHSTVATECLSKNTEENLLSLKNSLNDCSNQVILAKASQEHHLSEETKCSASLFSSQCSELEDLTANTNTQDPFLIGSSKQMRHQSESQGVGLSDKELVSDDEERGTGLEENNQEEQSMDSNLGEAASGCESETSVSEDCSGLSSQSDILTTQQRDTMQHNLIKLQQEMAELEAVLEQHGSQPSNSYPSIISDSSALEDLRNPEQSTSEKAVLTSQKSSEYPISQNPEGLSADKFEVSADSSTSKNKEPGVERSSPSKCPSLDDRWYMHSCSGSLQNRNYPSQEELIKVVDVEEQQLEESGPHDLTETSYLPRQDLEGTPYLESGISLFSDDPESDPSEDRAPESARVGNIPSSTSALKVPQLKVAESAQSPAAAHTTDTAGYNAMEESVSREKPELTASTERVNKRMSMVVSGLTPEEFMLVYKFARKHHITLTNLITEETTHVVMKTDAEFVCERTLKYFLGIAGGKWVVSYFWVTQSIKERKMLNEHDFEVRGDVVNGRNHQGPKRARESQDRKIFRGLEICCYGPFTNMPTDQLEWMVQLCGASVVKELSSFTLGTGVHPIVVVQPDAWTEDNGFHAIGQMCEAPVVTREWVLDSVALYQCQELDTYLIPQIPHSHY

effect of a mutation on the interaction	Variant
disrupting interaction	S990A
